The text below walks through data of patent JP2024028198A (dated 2024).

The labels stand for the following.
B1: 抗PAD4抗体Lib2(4R)-1-47 (antibody, V domains shown)
VH: EVQLLESGGGLVQPGGSLRLSCAASGFTFSTYAMGWVRQAPGKGLEFVAAIRNDGSWTGYGTPYKTRFTISRDNSKNTLYLQMNSLRAEDTAVYYCAKYTGSSGGSIGAWGQGTLVTVSS
VL: SYELTQPPSVSVSPGQTARITCSGGNRNYYYGWYQQKPGQAPVTVIYANDKRPSGIPERFSGSNSGSTTTLTISGVQAEDEADYYCGTATTGKYVFGGGTKLTVLG
B2: 抗PAD4抗体Lib1(6R)-2-37 (antibody, V domains shown)
VH: EVQLLESGGGLVQPGGSLRLSCAASGFTFSTYAMGWVRQAPGKGLEFVAAIRNDGSWTGIGYNQKSRFTISRDNSKNTLYLQMNSLRAEDTAVYYCGKYTGSSGGSIGAWGQGTLVTVSS
VL: SYELTQPPSVSVSPGQTARITCSGGNRNYYYGWYQQKPGQAPVTVIYANDKRPSGIPERFSGSNSGSTTTLTISGVQAEDEADYYCGTALTGKYVFGGGTKLTVLG
B3: ヒト化抗PAD4抗体G8 (antibody, human IgG1, lambda, V domains shown)
VH: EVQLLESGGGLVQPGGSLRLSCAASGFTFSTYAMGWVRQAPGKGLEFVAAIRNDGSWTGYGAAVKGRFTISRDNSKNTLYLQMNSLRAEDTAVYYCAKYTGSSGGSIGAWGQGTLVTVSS
VL: SYELTQPPSVSVSPGQTARITCSGGNRNYYYGWYQQKPGQAPVTVIYANDKRPSGIPERFSGSNSGSTTTLTISGVQAEDEADYYCGTADTGKYVFGGGTKLTVLG
B4: 抗PAD4抗体3-2-37 (antibody, human IgG1, lambda, V domains shown)
VH: EVQLLESGGGLVQPGGSLRLSCAASGFTFSTYAMGWVRQAPGKGLEFVAAIRNDGSWTGIGYNQKSRFTISRDNSKNTLYLQMSSLRAEDTAVYYCGKYTGSSGGSIGAWGQGTLVTVSS
VL: SYELTQPPSVSVSPGQTARITCSGGNRNYYYGWYQQKPGQAPVTVIYANDKRPSGIPERFSGSNSGSTTTLTISGVQAEDEADYYCGTALTGKYVFGGGTKLTVLG
B5: 抗PAD4抗体Lib1(6R)-1-39 (antibody, V domains shown)
VH: EVQLLESGGGLVQPGGSLRLSCAASGFTFSTYAMGWVRQAPGKGLEFVAAIRNDGSWTGTSVNAKTRFTISRDNSKNTLYLQMNSLRAEDTAVYYCAKYTGSSGGSIGAWGQGTLVTVSS
VL: SYELTQPPSVSVSPGQTARITCSGGNRNYYYGWYQQKPGQAPVTVIYANDKRPSGIPERFSGSNSGSTTTLTISGVQAEDEADYYCGTATTGKYVFGGGTKLTVLG
B6: ヒト化抗PAD4抗体G8ss (antibody, human IgG1, lambda, V domains shown)
VH: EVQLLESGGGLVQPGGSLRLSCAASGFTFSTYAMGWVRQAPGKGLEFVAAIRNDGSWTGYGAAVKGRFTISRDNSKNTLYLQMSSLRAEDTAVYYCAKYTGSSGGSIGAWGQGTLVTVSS
VL: SYELTQPPSVSVSPGQTARITCSGGNRNYYYGWYQQKPGQAPVTVIYANDKRPSGIPERFSGSNSGSTTTLTISGVQAEDEADYYCGTADTGKYVFGGGTKLTVLG
B7: 抗PAD4抗体4-2-25 (antibody, human IgG1, lambda, V domains shown)
VH: EVQLLESGGGLVQPGGSLRLSCAASGFTFSTYAMGWVRQAPGKGLEFVAAIRNDGSWTGYPPPLKGRFTISRDNSKNTLYLQMSSLRAEDTAVYYCAKYTGSSGGSIGAWGQGTLVTVSS
VL: SYELTQPPSVSVSPGQTARITCSGGNRNYYYGWYQQKPGQAPVTVIYANDKRPSGIPERFSGSNSGSTTTLTISGVQAEDEADYYCGTAYTGKYVFGGGTKLTVLG
B8: 抗PAD4抗体Lib2(5R)-2-25 (antibody, V domains shown)
VH: EVQLLESGGGLVQPGGSLRLSCAASGFTFSTYAMGWVRQAPGKGLEFVAAIRNDGSWTGYPPPLKGRFTISRDNSKNTLYLQMNSLRAEDTAVYYCAKYTGSSGGSIGAWGQGTLVTVSS
VL: SYELTQPPSVSVSPGQTARITCSGGNRNYYYGWYQQKPGQAPVTVIYANDKRPSGIPERFSGSNSGSTTTLTISGVQAEDEADYYCGTAYTGKYVFGGGTKLTVLG
B9: 抗PAD4抗体3-1-39 (antibody, human IgG1, lambda, V domains shown)
VH: EVQLLESGGGLVQPGGSLRLSCAASGFTFSTYAMGWVRQAPGKGLEFVAAIRNDGSWTGTSVNAKTRFTISRDNSKNTLYLQMSSLRAEDTAVYYCAKYTGSSGGSIGAWGQGTLVTVSS
VL: SYELTQPPSVSVSPGQTARITCSGGNRNYYYGWYQQKPGQAPVTVIYANDKRPSGIPERFSGSNSGSTTTLTISGVQAEDEADYYCGTATTGKYVFGGGTKLTVLG
B10: 抗PAD4抗体2-1-47 (antibody, human IgG1, lambda, V domains shown)
VH: EVQLLESGGGLVQPGGSLRLSCAASGFTFSTYAMGWVRQAPGKGLEFVAAIRNDGSWTGYGTPYKTRFTISRDNSKNTLYLQMSSLRAEDTAVYYCAKYTGSSGGSIGAWGQGTLVTVSS
VL: SYELTQPPSVSVSPGQTARITCSGGNRNYYYGWYQQKPGQAPVTVIYANDKRPSGIPERFSGSNSGSTTTLTISGVQAEDEADYYCGTATTGKYVFGGGTKLTVLG

Sequence of ヒトPAD4 (Q9UM07 whole entry): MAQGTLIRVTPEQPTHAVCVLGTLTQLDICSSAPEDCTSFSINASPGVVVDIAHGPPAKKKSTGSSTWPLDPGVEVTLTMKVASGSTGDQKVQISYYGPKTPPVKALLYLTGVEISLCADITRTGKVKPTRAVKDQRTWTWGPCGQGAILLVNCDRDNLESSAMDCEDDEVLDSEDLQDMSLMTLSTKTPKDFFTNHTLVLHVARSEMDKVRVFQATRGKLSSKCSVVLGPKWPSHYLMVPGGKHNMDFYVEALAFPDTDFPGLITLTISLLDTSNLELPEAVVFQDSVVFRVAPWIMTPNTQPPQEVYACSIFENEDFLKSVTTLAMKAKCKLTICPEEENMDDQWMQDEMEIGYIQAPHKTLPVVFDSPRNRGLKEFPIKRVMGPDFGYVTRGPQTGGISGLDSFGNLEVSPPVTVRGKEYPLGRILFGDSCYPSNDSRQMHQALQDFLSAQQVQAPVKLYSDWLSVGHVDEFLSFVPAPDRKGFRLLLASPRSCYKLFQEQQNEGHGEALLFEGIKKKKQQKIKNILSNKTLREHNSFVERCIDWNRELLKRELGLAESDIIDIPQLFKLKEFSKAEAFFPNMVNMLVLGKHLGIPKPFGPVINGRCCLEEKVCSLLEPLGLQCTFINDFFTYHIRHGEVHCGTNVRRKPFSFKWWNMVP

The test concerns the target ヒトPAD4 (human, UniProt Q9UM07 1-663, limits assumed). Briefly: cell-based or functional assay.
With B1, the “ヒトPAD4酵素阻害活性 IC50 (BAEE citrullination, colorimetric)” value (from here on “ヒトPAD4酵素阻害活性 IC50”) was found to be 9.6 nM.

Take B2: the “ヒトPAD4酵素阻害活性 IC50” value worked out at 13.4 nM.

For the molecule B3, the “ヒトPAD4酵素阻害活性 IC50” value stood at 21.6 nM.

Regarding B4, the “ヒトPAD4酵素阻害活性 IC50” value stood at 15.3 nM.

As to B5, the “ヒトPAD4酵素阻害活性 IC50” value was found to be 8.7 nM.

As to B6, the “ヒトPAD4酵素阻害活性 IC50” value is 20.3 nM.

In the case of B7, the “ヒトPAD4酵素阻害活性 IC50” value turned out to be 7.6 nM.

In the case of B8, the “ヒトPAD4酵素阻害活性 IC50” value was determined as 8.3 nM.

B9: the “ヒトPAD4酵素阻害活性 IC50” value stood at 8.8 nM.

As to B10, the “ヒトPAD4酵素阻害活性 IC50” value was 12.2 nM.
